# Source: patent US20230331809A1 (Zymeworks, published 2023)
# Legend:
# [1] = target: T1, PD-L1 (Programmed death-ligand 1) on cells (UniProt Q9NZQ7 19-290); assay: flow cytometry on PD-L1 transfected CHO-S cells, MFI; * poor fit; uncleavable variant, sample treated with uPa
# T1 construct: whole, on cells
# [2] = target: T2, PD-1 (Programmed Cell Death Protein 1) on cells (UniProt Q15116 25-288); assay: flow cytometry on PD-1 transfected CHO-S cells, MFI; * poor fit; uncleavable variant, table and legend box disagree on the uPa treatment
# T2 construct: whole, on cells
# [3] = target: T3, CD40 (Cluster of Differentiation 40) on cells (UniProt P25942 21-277, limits assumed); assay: cell-based or functional assay
# [4] = target: T3, CD40 (Cluster of Differentiation 40) on …; assay: flow cytometry on Raji cells (CD40), MFI
# [5] = target: T3, CD40 (Cluster of Differentiation 40) on …; assay: flow cytometry on Raji cells (CD40), MFI; EC50 relative to v32477 -uPa
# [6] = target: T3, CD40 (Cluster of Differentiation 40) on …; assay: flow cytometry on Raji cells (CD40), MFI; sample treated with uPa; EC50 relative to v32477 -uPa
# [7] = target: T3, CD40 (Cluster of Differentiation 40) on …; assay: flow cytometry on Raji cells (CD40), MFI; sample treated with uPa (variant has no cleavage site)
# [8] = target: T4, CDH3 (Cadherin 3) on JIMT1 cells (UniProt P22223 108-829, limits assumed); assay: flow cytometry on JIMT1 cells (CDH3), MFI
# T4 construct: whole, on cells; also called P-cadherin
# [9] = target: T4, CDH3 (Cadherin 3) on JIMT1 cells; assay: flow cytometry on JIMT1 cells (CDH3), MFI; reference sample
# [10] = target: T1, PD-L1 (Programmed death-ligand 1) on …; assay: cell-based or functional assay
# [11] = target: T5, CD3 (Cluster of Differentiation 3) on Jurkat cells and on pan T cells (human, UniProt P07766 23-207); assay: flow cytometry on pan T cells (CD3), MFI
# T5 construct: whole, on cells
# [12] = target: T5, CD3 (Cluster of Differentiation 3) on …; assay: flow cytometry on human pan T cells, separate experiment (FIG. 32)
# [13] = target: T5, CD3 (Cluster of Differentiation 3) on …; assay: cell ELISA on Jurkat cells (CD3), OD450
# [14] = target: T5, CD3 (Cluster of Differentiation 3) on …; assay: cell ELISA on Jurkat cells (CD3), OD450; remark: listed apart in the source
# [15] = target: T5, CD3 (Cluster of Differentiation 3) on …; assay: flow cytometry on pan T cells (CD3), MFI; remark: listed apart in the source
# [16] = target: T5, CD3 (Cluster of Differentiation 3) on …; assay: cell ELISA on Jurkat cells (CD3), OD450; reference sample
# [17] = target: T2, PD-1 (Programmed Cell Death Protein 1) …; assay: flow cytometry on PD-1 transfected CHO-S cells, MFI; * poor fit
# [18] = target: T1, PD-L1 (Programmed death-ligand 1) on …; assay: flow cytometry on PD-L1 transfected CHO-S cells, MFI; * poor fit
# [19] = target: T5, CD3 (Cluster of Differentiation 3) on …; assay: flow cytometry on pan T cells (CD3), MFI; sample treated with uPa (variant has no mask)
# [20] = target: T5, CD3 (Cluster of Differentiation 3) on …; assay: flow cytometry on pan T cells (CD3), MFI; sample treated with uPa; EC50 relative to v30421 -uPa
# [21] = target: T6, Mesothelin (MSLN) on OVCAR3 cells (UniProt Q13421 296-598); assay: flow cytometry on OVCAR3 cells (MSLN), MFI
# T6 construct: whole, on cells
# [22] = target: T6, Mesothelin (MSLN) on OVCAR3 cells; assay: flow cytometry on OVCAR3 cells (MSLN), MFI; EC50 relative to v16417
# [23] = target: T4, CDH3 (Cadherin 3) on JIMT1 cells; assay: flow cytometry on JIMT1 cells (CDH3), MFI; EC50 relative to v17214
binder,measurement,setting,value
"Variant 30426: WT PD-1:HA PD-L1 masked CD3 × Her2 Fab × scFv Fc, with an uncleavable linker (bispecific antibody, human IgG1, kappa, L234A L235A) heavy: not shown light: AFTVTVPKDLYVVEYGSNMTIECKFPVEKQLDLAALQVFWMMEDKNIIQFVHGEEDLKVQHSSYRQRARLLKDQLSLGNAALQITDVKLQDAGVYTCLIAYKGADYKRITVKVNAEAAAKEAAAKDIQMTQSPSSLSASVGDRVTMTCSASSSVSYMNWYQQKPGKAPKRWIYDSSKLASGVPARFSGSGSGTDYTLTISSLQPEDFATYYCQQWSRNPPTFGGGTKLQITRTVAAPSVFIFPPSDEQLKSGTASVVCLLNNFYPREAKVQWKVDNALQSGNSQESVTEQDSKDSTYSLSSTLTLSKADYEKHKVYACEVTHQGLSSPVTKSFNRGEC not shown",Fold wrt v31929,[1],> 570 fold
same,Fold wrt v31931,[2],> 35 fold
"Variant 32478: HA PD-1:WT PD-L1 masked aCD40 Mab, uncleavable (antibody, human IgG1, kappa, also called v32478) heavy: not shown light: AFTVTVPKDLYVVEYGSNMTIECKFPVEKQLDLAALIVYWEMEDKNIIQFVHGEEDLKVQHSSYRQRARLLKDQLSLGNAALQITDVKLQDAGVYRCMISYGGADYKRITVKVNAEAAAKEAAAKDIQMTQSPSSVSASVGDRVTITCRASQGIYSWLAWYQQKPGKAPNLLIYTASTLQSGVPSRFSGSGSGTDFTLTISSLQPEDFATYYCQQANIFPLTFGGGTKVEIKRTVAAPSVFIFPPSDEQLKSGTASVVCLLNNFYPREAKVQWKVDNALQSGNSQESVTEQDSKDSTYSLSSTLTLSKADYEKHKVYACEVTHQGLSSPVTKSFNRGEC","EC50, CD40 RGA, FcgRIIB CHOK1 (sample v32478 + uPa)",[3],4.28 mg/L
same,"EC50, CD40 RGA, FcgRIIB CHOK1 (sample v32478 - uPa)",[3],5.43 mg/L
same,"Fold wrt WT (EC50), CD40 RGA, FcgRIIB CHOK1 (sample v32478 + uPa)",[3],88.2 fold
same,"Fold wrt WT (EC50), CD40 RGA, FcgRIIB CHOK1 (sample v32478 - uPa)",[3],112 fold
same,EC50,[4],41 nM
same,Fold wrt WT,[5],42 fold
same,Fold wrt WT,[6],67 fold
same,EC50,[7],65 nM
"Variant 17214: Unmasked aCDH3 mAb (antibody, human IgG1, lambda) heavy: not shown light: GQSALTQPASVSGSPGQSITISCTGTSNDVGAYNYVSWYQQHPGKAPKLMISEVNKRPSGVSNRFSGSKSGNTASLTISGLQAEDEADYYCSSFTSGLPWVVFGGGTKLTVLGQPKAAPSVTLFPPSSEELQANKATLVCLISDFYPGAVTVAWKADSSPVKAGVETTTPSKQSNNKYAASSYLSLTPEQWKSHRSYSCQVTHEGSTVEKTVAPTECS",EC50,[8],0.36 nM
same,Fold wrt WT,[9],1 fold
"Variant 32497: Half-masked CD3 × Her2 Fab × scFv Fc, PD-1 KO attached to HC (bispecific antibody, human IgG1, kappa, L234A L235A, also called v32497; variant with a non-functional PD-1 domain appended to the heavy chain) heavy: not shown light: DIQMTQSPSSLSASVGDRVTMTCSASSSVSYMNWYQQKPGKAPKRWIYDSSKLASGVPARFSGSGSGTDYTLTISSLQPEDFATYYCQQWSRNPPTFGGGTKLQITRTVAAPSVFIFPPSDEQLKSGTASVVCLLNNFYPREAKVQWKVDNALQSGNSQESVTEQDSKDSTYSLSSTLTLSKADYEKHKVYACEVTHQGLSSPVTKSFNRGEC not shown","TDCC potency on JIMT-1 target cells, fold EC50 vs unmasked v30421",[10],55 fold
same,EC50,[11],13 nM
same,fold reduction in binding vs unmasked control,[12],6 fold
"Variant 30421: CD3 × Her2 Fab × scFv Fc without mask (bispecific antibody, human IgG1, kappa, L234A L235A, also called v30421; unmasked variant) heavy: not shown light: DIQMTQSPSSLSASVGDRVTMTCSASSSVSYMNWYQQKPGKAPKRWIYDSSKLASGVPARFSGSGSGTDYTLTISSLQPEDFATYYCQQWSRNPPTFGGGTKLQITRTVAAPSVFIFPPSDEQLKSGTASVVCLLNNFYPREAKVQWKVDNALQSGNSQESVTEQDSKDSTYSLSSTLTLSKADYEKHKVYACEVTHQGLSSPVTKSFNRGEC not shown",EC50,[13],1.2 nM
same,EC50,[14],1.2 nM
same,EC50,[15],2.3 nM
same,EC50,[11],2.1 nM
same,Fold wrt WT,[16],1 fold
same,Fold wrt v31931,[17],> 35 fold
same,Fold wrt v31929,[18],> 570 fold
same,EC50,[19],5.3 nM
same,Fold wrt WT,[20],2.3 fold
"Variant 31729: HA PD-1:WT PD-L1 masked aMSLN Mab, PD-L1 cleavable (not treated with uPa) (antibody, human IgG1, kappa) heavy: not shown light: AFTVTVPKDLYVVEYGSNMTIECKFPVEKQLDLAALIVYWEMEDKNIIQFVHGEEDLKVQHSSYRQRARLLKDQLSLGNAALQITDVKLQDAGVYRCMISYGGADYKRITVKVNAEAAAKEAAAKMSGRSANADIQMTQSPSSLSASVGDRVTITCSASSSVSYMHWYQQKSGKAPKLLIYDTSKLASGVPSRFSGSGSGTDFTLTISSLQPEDFATYYCQQWSKHPLTFGQGTKLEIKRTVAAPSVFIFPPSDEQLKSGTASVVCLLNNFYPREAKVQWKVDNALQSGNSQESVTEQDSKDSTYSLSSTLTLSKADYEKHKVYACEVTHQGLSSPVTKSFNRGEC",EC50,[21],74 nM
same,Fold wrt WT (EC50),[22],31 fold
"Variant 28662: HA PD-1:WT PD-L1 masked aCDH3 Mab, uncleavable (antibody, human IgG1, lambda) heavy: not shown light: AFTVTVPKDLYVVEYGSNMTIECKFPVEKQLDLAALIVYWEMEDKNIIQFVHGEEDLKVQHSSYRQRARLLKDQLSLGNAALQITDVKLQDAGVYRCMISYGGADYKRITVKVNAEAAAKEAAAKQSALTQPASVSGSPGQSITISCTGTSNDVGAYNYVSWYQQHPGKAPKLMISEVNKRPSGVSNRFSGSKSGNTASLTISGLQAEDEADYYCSSFTSGLPWVVFGGGTKLTVLGQPKAAPSVTLFPPSSEELQANKATLVCLISDFYPGAVTVAWKADSSPVKAGVETTTPSKQSNNKYAASSYLSLTPEQWKSHRSYSCQVTHEGSTVEKTVAPTECS",EC50,[8],9.8 nM
same,Fold wrt WT,[23],28 fold
